The experiment deals with T1, 4H.01 (synthetic construct (de novo design)).
T1 chain: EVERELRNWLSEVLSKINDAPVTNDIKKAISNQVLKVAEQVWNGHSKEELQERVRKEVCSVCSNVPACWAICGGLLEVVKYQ
As to the kind of experiment: SPR. A general note: In SPR one partner is held on a chip, and binding of the other changes the refractive index at the surface.

Broadly, the Kd is the concentration at which binding is half-saturated. The low end stands for higher affinity, the high end for lower affinity.

B1: Motavizumab IgG (antibody, V domains shown)
VH: QVTLRESGPALVKPTQTLTLTCTFSGFSLSTAGMSVGWIRQPPGKALEWLADIWWDDKKHYNPSLKDRLTISKDTSKNQVVLKVTNMDPADTATYYCARDMIFNFYFDVWGQGTTVTVSS
VL: DIQMTQSPSTLSASVGDRVTITCSASSRVGYMHWYQQKPGKAPKLLIYDTSKLASGVPSRFSGSGSGTEFTLTISSLQPDDFATYYCFQGSGYPFTFGGGTKVEIK
B1 yielded a Kd of 0.5 nM.

B2: 2D10 IgG (antibody, V domains shown)
VH: QVQLVQSGPEVKKPGASVRLSCKASGYVFTNYGVSWVRQAPGQGLEWMGWSSPYNGNTYYAQKLKARVTMTTDTSTNTAYMELRSLRSDDTAVYYCGRDMLGVVQAVAGPFDSWGQGTLVTVSS
VL: DTPMTQSPSSVSASVGDRVTISCRASQGISNSLAWYQQKLGKAPQLLIYAASSLQSGVPSRFSGSGSGTDFTLTISSLQPEDFATYYCQQTNTFPFTFGPGTKVEVR
B2 registered a Kd of 200 nM.

These data come from article doi:10.1101/2020.03.11.988071 (bioRxiv, 2020).
